Results from US20030113725A1.
Substitutions are numbered along the chain they refer to.

B1: wild-type alpha-2C adrenergic receptor, P18825 1-462 (receptor)
chain: MASPALAAALAVAAAAGPNASGAGERGSGGVANASGASWGPPRGQYSAGAVAGLAAVVGFLIVFTVVGNVLVVIAVLTSRALRAPQNLFLVSLASADILVATLVMPFSLANELMAYWYFGQVWCGVYLALDVLFCTSSIVHLCAISLDRYWSVTQAVEYNLKRTPRRVKATIVAVWLISAVISFPPLVSLYRQPDGAAYPQCGLNDETWYILSSCIGSFFAPCLIMGLVYARIYRVAKRRTRTLSEKRAPVGPDGASPTTENGLGAAAGAGENGHCAPPPADVEPDESSAAAERRRRRGALRRGGRRRAGAEGGAGGADGQGAGPGAAESGALTASRSPGPGGRLSRASSRSVEFFLSRRRRARSSVCRRKVAQAREKRFTFVLAVVMGVFVLCWFPFFFIYSLYGICREACQVPGPLFKFFFWIGYCNSSLNPVIYTVFNQDFRPSFKHILFRRRRRGFRQ
B2: polymorphic Lys251 alpha-2A adrenergic receptor, P08913 16-465 (receptor)
chain: MGSLQPDAGNASWNGTEAPGGGARATPYSLQVTLTLVCLAGLLMLLTVFGNVLVIIAVFTSRALKAPQNLFLVSLASADILVATLVIPFSLANEVMGYWYFGKAWCEIYLALDVLFCTSSIVHLCAISLDRYWSITQAIEYNLKRTPRRIKAIIITVWVISAVISFPPLISIEKKGGGGGPQPAEPRCEINDQKWYVISSCIGSFFAPCLIMILVYVRIYQIAKRRTRVPPSRRGPDAVAAPPGGTERRPKGLGPERSAGPGGAEAEPLPTQLNGAPGEPAPAGPRDTDALDLEESSSSDHAERPPGPRRPERGPRGKGKARASQVKPGDSLPRRGPGATGIGTPAAGPGEERVGAAKASRWRGRQNREKRFTFVLAVVIGVFVVCWFPFFFTYTLTAVGCSVPRTLFKFFFWFGYCNSSLNPVIYTIFNHDFRRAFKKILCRGDRKRIV
B3: wild-type Asn251 alpha-2A adrenergic receptor, P08913 16-465 (receptor)
chain: B2 chain with K251N
B4: Del322-325 alpha-2C adrenergic receptor, P18825 1-462 (receptor)
chain: MASPALAAALAVAAAAGPNASGAGERGSGGVANASGASWGPPRGQYSAGAVAGLAAVVGFLIVFTVVGNVLVVIAVLTSRALRAPQNLFLVSLASADILVATLVMPFSLANELMAYWYFGQVWCGVYLALDVLFCTSSIVHLCAISLDRYWSVTQAVEYNLKRTPRRVKATIVAVWLISAVISFPPLVSLYRQPDGAAYPQCGLNDETWYILSSCIGSFFAPCLIMGLVYARIYRVAKRRTRTLSEKRAPVGPDGASPTTENGLGAAAGAGENGHCAPPPADVEPDESSAAAERRRRRGALRRGGRRRAGAEGGAGGADGQGAAESGALTASRSPGPGGRLSRASSRSVEFFLSRRRRARSSVCRRKVAQAREKRFTFVLAVVMGVFVLCWFPFFFIYSLYGICREACQVPGPLFKFFFWIGYCNSSLNPVIYTVFNQDFRPSFKHILFRRRRRGFRQ

What was measured:
[1] = biological target: HA epitope tagged wild-type alpha-2B adrenergic receptor (human) (UniProt P18089); assay: cell-based or functional assay
[2] = biological target: HA epitope tagged Del301-303 alpha-2B adrenergic receptor (human) (UniProt P18089); assay: cell-based or functional assay
[3] = tested on: HA epitope tagged Del301-303 alpha-2B adrenergic receptor
[4] = biological target: Gi; assay: cell-based or functional assay
[5] = biological target: Gi/Go; assay: cell-based or functional assay

Row | Molecule | Max Inhibition (%) of adenylyl cyclase, BHT-933 [4] | Max Inhibition (%) of adenylyl cyclase, UK 14304 [4] | Max Inhibition (%) of adenylyl cyclase, clonidine [4] | Max Inhibition (%) of adenylyl cyclase, guanabenz [4] | Max Inhibition (%) of adenylyl cyclase, norepinephrine [4] | Max Inhibition (%) of adenylyl cyclase, oxymetazoline [4] | inhibition of adenylyl cyclase (epinephrine, lower expressing CHO lines) [4] | maximal inhibition of adenylyl cyclase (epinephrine, higher expressing CHO lines) [4] | epinephrine-stimulated accumulation of inositol phosphates (10 µM, intact CHO cells) [5] | high affinity dissociation constant KH of the agonist epinephrine (competition with [3H]yohimbine without GTP) [5] | percentage of receptors in the high-affinity state (% RH), epinephrine competition without GTP [5] | inhibition of adenylyl cyclase (epinephrine, CHO membranes) [4] | maximal inhibition of adenylyl cyclase (partial agonist oxymetazoline, CHO membranes) [4] | stimulation of MAP kinase (10 µM epinephrine, CHO cells) (fold increase over basal) [4] | also measured
1 | GRK2 (βARK1) (enzyme) |  |  |  |  |  |  |  |  |  |  |  |  |  |  | agonist-promoted whole cell receptor phosphorylation (norepinephrine, COS-7 cells coexpressing GRK2) (fold increase) [1]: 5.84; agonist-promoted whole cell receptor phosphorylation (norepinephrine, COS-7 cells coexpressing GRK2) (fold increase) [2]: 3.28
2 | GRK2 (βARK1) |  |  |  |  |  |  |  |  |  |  |  |  |  |  | agonist-promoted phosphorylation as percent of wild-type [3]: the Del301-303 receptor displayed -56% of wild-type phosphorylation; basal phosphorylation, compared with the wild-type receptor [3]: Basal phosphorylation was equivalent between the two receptors
3 | B1 | 56.8% | 67.6% | 38.5% | 53.8% | 76.6% | 27% | 73 % inhibition | 60 % inhibition | 30 % over basal | 3.7 nM | 49% |  |  |  | 
4 | B2 |  |  |  |  |  |  |  |  |  |  |  | 60 % inhibition | 50 % inhibition | 57 | 
5 | B3 |  |  |  |  |  |  |  |  |  |  |  | 46 % inhibition | 35 % inhibition | 15 | 
6 | B4 | 26.7% | 30.8% | 20.9% | 30% | 34.9% | 12.8% | 10 % inhibition | 31 % inhibition | 11 % over basal | 7.3 nM | 31% |  |  |  | impairment of maximal adenylyl cyclase inhibition against wild-type (higher expressing CHO lines) [4]: 50 % impairment; impairment of inositol phosphate accumulation against wild-type [5]: 60 % impairment
